# Measured values reported in EP4722246A1 (Inxmed (Nanjing) Co., Ltd., dated 2024).
# How the values were obtained:
# [1] = biological target: T1, mouse TEM8 on CHO-mTEM8 cells (mouse, UniProt Q9CZ52 31-562); assay: FACS on CHO-mTEM8 cells
# T1 construct: also called murine TEM8
# [2] = biological target: human TEM8 on CHO-hTEM8 cells (human, UniProt Q9H6X2 33-564); assay: FACS on CHO-hTEM8 cells
# T1 sequence (Q9CZ52 31-562): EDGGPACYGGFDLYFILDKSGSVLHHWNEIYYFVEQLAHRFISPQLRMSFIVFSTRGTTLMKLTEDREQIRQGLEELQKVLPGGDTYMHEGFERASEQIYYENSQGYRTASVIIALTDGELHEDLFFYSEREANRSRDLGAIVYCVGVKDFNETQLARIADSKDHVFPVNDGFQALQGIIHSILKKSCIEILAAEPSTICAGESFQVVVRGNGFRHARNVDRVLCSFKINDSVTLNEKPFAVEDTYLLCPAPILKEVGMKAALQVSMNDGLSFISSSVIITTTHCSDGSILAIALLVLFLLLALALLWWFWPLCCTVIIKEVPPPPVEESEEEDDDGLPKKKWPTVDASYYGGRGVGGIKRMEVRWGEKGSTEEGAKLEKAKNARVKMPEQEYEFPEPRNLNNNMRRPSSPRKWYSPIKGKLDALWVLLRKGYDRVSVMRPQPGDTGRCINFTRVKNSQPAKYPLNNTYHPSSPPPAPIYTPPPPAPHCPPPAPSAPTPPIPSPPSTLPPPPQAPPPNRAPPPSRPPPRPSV
Binder,EC50 [1] [nM],EC50 [2] [nM]
"3B3 (antibody, human IgG1, kappa, L234A L235A, V domains shown, Full IgG made in CHO cells, kappa constant region; also called TEM8-3B3) VH: EVQLVQSGGGLVKPGGSLRLSCAASGFTFSSYSMNWVRQAPGKGLEWVSSISSSSSYIYYADSVKGRFTISRDNAKNSLYLQMNSLRAEDTAVYYCARVRPPYGMDVWGQGTLVTVSS VL: NIQMTQSPSSVSASVGDTVTISCRASQGISNWLGWYQQRPGEAPKLLIYAASHLQSGVPSRFSGSGSGTDFVLTITSLQPEDFATYYCQQSNSFPLAFGGGTKLEIKR",2.14,1.51
"3A3 (antibody, human IgG1, kappa, L234A L235A, V domains shown, Full IgG made in CHO cells: variable regions joined to the IgG heavy chain constant region and the kappa constant region; also called TEM8-3A3) VH: QVQLVQSGPEVKKPGAPVKISCKTSGYIFDDYGITWVRQAPGQGLEWLGWISTYNGKTSFAQKVQGRLTMTTDISTNTASMELRGLRSDDTALYYCARVFSRYIPFYFDSWGQGTLVTVSS VL: not shown",1.48,0.71
"7E3 (antibody, human IgG1, lambda, L234A L235A, V domains shown, Full IgG made in CHO cells, lambda constant region; also called TEM8-7E3) VH: QVQLVESGGGLVNPGGSLRLSCAVSGFTSSGFSINWVRQAPGKGLEWVSSISGIGDSIFYADSVKGRFTISRDNAKNLVFLQMNSVKAEDTAVYYCVRDKWGWGTYSLFDYWGQGTLVTVSS VL: QAVLTQPPSASGTPGQRVTISCSGSSSNIASNVVSWYQQLPGTAPKVLIYSNNRRPSGVPDRFSGSKSGASASLAISGLQSDDETHYYCAAWDDSLKGPVFGGGTQLTVLG",1.41,0.75

# Stronger by EC50 [1], values ahead:
EC50 [1] [nM],EC50 [2] [nM],Binder
1.16,0.63,"6A6Q (antibody, human IgG1, lambda, L234A L235A, V domains shown, Full IgG made in CHO cells, lambda constant region; Variant of 6A6 whose light chain glycosylation site NRS was mutated to QRS; also called TEM8-6A6Q) VH: EVQLVESGGGVVQPGGSLRLSCAASGFTFDDYAMHWVRQAPGKGLEWVSLISGDGGSTYYADSVKGRFTISRDNSKNSLYLQMNSLKASDTAMYYCARPRWGRYSSSWPFDYWGQGTLVTVSS VL: QSALTQPASVSGSPGQSITISCTGTSSDVGTYNYVSWYQQHPGKAPKLMIYDVTDRPSGISNRFSGSKSGNTASLTISGLQAEDEGNYYCSSYTSQRSWVFGGGTKLTVLG"
1.21,0.85,"11B7 (antibody, human IgG1, lambda, L234A L235A, V domains shown, Full IgG made in CHO cells, lambda constant region; also called TEM8-11B7) VH: QVQLVQSGGGVVQPGRPLRLSCAASGFNLGSYAMSWVRQAPGKGLEWVSAISGSGGSTYYADSVKGRFTISRDNSKNTLYLQMNSLRAEDTAVYYCAKILGPGNLNYYYYYGMDVWGQGTTVTVSS VL: SSELTQDPAVSVALGQTVRITCQGDSLRNSYASWYQQKPGQAPVLVIYGNNNRPSGIPDRVSGSRSGNTASLTITGAQAEDEADYYCNSRDSSGNHVVFGGGTELTVLG"
